Tests used:
[1] = biological target: the molecule itself
SEC = biological target: the molecule itself; experiment: SEC
[2] = biological target: T1, phosphorylated neutral trehalase Nth1 (pNth1) (Saccharomyces cerevisiae, UniProt P32356 1-751, phosphorylated (sites not given)); experiment: SAXS
T1 sequence: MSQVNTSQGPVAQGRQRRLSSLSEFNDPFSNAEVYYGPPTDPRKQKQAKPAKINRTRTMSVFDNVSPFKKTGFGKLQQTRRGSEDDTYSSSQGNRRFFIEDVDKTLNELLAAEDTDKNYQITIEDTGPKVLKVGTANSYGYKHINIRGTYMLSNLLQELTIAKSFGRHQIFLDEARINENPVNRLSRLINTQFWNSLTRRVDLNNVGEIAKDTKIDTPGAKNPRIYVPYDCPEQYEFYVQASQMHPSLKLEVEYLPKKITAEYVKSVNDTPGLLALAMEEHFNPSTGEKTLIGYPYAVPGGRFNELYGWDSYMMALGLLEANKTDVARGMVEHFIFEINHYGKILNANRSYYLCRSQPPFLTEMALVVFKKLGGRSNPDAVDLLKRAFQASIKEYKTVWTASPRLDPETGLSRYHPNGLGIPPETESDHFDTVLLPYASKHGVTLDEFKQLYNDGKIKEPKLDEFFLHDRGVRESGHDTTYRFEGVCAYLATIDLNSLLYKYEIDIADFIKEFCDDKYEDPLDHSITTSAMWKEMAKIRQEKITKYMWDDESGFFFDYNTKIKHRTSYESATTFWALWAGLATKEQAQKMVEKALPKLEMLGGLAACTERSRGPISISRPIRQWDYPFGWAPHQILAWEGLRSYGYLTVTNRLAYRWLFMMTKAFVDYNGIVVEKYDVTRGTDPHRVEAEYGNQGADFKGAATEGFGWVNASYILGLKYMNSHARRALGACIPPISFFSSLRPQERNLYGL

B1: DNA-binding domain of human FoxP1 (domain or fragment)
chain: AEVRPPFTYASLIRQAILESPEKQLTLNEIYNWFTRMFAYFRRNAATWKNAVRHNLSLHKCFVRVENVKGAVWTVDEVEFQKRRPQKISGNPSL
B1 was tested, and the “dH (dimer dissociation, van't Hoff)” value [1] was 23.1 kcal•mol‐1.

B2: human HtrA3 lacking the N-terminal domain (enzyme)
chain: GLHQLSSPRYKFNFIADVVEKIAPAVVHIELFLRHPLFGRNVPLSSGSGFIMSEAGLIITNAHVVSSNSAAPGRQQLKVQLQNGDSYEATIKDIDKKSDIATIKIHPKKKLPVLLLGHSADLRPGEFVVAIGSPFALQNTVTTGIVSTAQREGRELGLRDSDMDYIQTDAIINYGNSGGPLVNLDGEVIGINTLKVTAGISFAIPSDRITRFLTEFQDKQIKDWKKRFIGIRMRTITPSLVDELKASNPDFPEVSSGIYVQEVAPNSPSQRGGIQDGDIIVKVNGRPLVDSSELQEAVLTESPLLLEVRRGNDDLLFSIAPEVVM
With B2 the “stoichiometry N” value (SEC) was 3.

B3: yeast 14-3-3 protein Bmh1 (natural protein)
chain: MSTSREDSVYLAKLAEQAERYEEMVENMKTVASSGQELSVEERNLLSVAYKNVIGARRASWRIVSSIEQKEESKEKSEHQVELICSYRSKIETELTKISDDILSVLDSHLIPSATTGESKVFYYKMKGDYHRYLAEFSSGDAREKATNASLEAYKTASEIATTELPPTHPIRLGLALNFSVFYYEIQNSPDKACHLAKQAFDDAIAELDTLSEESYKDSTLIMQLLRDNLTLWTSDMSESGQAEDQQQQQQHQQQQPPAAAEGEAPK
B3: binds [2].
